T1: hIL-6R.BP15 (human interleukin-6 receptor with BP15 tag, biotinylated) (human, UniProt P08887 20-365, site-directed biotinylation on the BP15 tag)
T1 sequence: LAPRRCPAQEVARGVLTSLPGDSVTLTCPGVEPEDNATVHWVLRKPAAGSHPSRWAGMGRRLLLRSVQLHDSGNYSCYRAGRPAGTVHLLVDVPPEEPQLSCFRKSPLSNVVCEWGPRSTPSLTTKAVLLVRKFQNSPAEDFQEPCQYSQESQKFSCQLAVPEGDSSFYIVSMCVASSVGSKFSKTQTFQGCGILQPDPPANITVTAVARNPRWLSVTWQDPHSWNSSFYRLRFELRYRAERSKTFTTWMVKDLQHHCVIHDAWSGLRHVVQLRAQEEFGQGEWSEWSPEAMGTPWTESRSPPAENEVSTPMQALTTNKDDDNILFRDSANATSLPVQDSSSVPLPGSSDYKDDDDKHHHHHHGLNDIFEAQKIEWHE

T2: membrane-type IL-6R on cells (U266B1, TF-1, Hep3B) (UniProt P08887 20-468, limits assumed)
T2 sequence (looked up): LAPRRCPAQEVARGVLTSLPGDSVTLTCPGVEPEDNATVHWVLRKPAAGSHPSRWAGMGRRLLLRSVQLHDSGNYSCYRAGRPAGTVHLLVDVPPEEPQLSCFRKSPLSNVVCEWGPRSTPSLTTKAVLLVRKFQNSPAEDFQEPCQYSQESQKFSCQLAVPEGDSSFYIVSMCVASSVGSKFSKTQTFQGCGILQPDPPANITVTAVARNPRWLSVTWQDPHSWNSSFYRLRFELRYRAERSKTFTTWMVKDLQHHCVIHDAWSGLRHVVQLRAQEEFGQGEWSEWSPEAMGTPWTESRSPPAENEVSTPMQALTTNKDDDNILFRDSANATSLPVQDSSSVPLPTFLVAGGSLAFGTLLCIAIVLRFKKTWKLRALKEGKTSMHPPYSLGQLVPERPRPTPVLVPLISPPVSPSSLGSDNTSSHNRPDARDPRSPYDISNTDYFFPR


What was measured:
[1] = molecular target: T1, hIL-6R.BP15 (human interleukin-6 …); assay: blocking ELISA: coated gp130, IL-6.his and IL-6R.BP15 (0.06 ug/ml) with serially diluted antibody, HRP-streptavidin, OD450; blocked: binding of the IL-6/IL-6R complex to gp130; unit from the abscissa
Experimental: The complex of IL-6 and IL-6R can bind to GP130. The assay will evaluate if the selected antibodies were able to block the formation of IL-6/IL-6R/gp130 complex by binding to IL-6R. The plates were coated with 1 μg/ml gp130 (diluted in PBS) at 4° C. overnight. The coating solution was discarded, and plates were blocked with 5% skim milk in PBS at 37° C. for 2-3h. After blocking, the plates were washed 3 times with washing buffer PBST (0.1% Tween-20 in PBS).
IL-6.his and IL-6R.BP15 were diluted with 1% BSA in PBS to a concentration of 0.06 μg/ml. Starting at 50 ug/ml, IL-6R antibodies were 1:3 serially diluted in dilution buffer and Both testing antibody samples and IL-6/IL-6R complex were added to the plate followed by lh incubation at 37° C. After that, the plates were washed for 3 times with washing buffer PBST (0.1% Tween-20 in PBS).
1:2000 diluted Secondary antibody HRP streptavidin (Jackson, 016-030-084) was added to the plate followed by 1 h incubation at 37° C.After incubation and wash,. TMB was used for development. OD₄₅₀ values were read.

[2] = molecular target: T2, membrane-type IL-6R on cells (U266B1, …); assay: cell-based or functional assay
[3] = molecular target: T1, hIL-6R.BP15 (human interleukin-6 …); assay: blocking ELISA: coated IL-6.Fc, 1 ng/ul biotinylated IL-6R.BP15 with serially diluted antibody, HRP-streptavidin, OD450; blocked ligand IL-6.Fc; unit from the abscissa
Experimental: The formation of IL-6R/IL-6 complex can be blocked by the binding of IL-6R antibody to IL-6R, indicating the downstream cell signaling could be blocked by preventing IL-6/IL-6Rcomplex formationon the cell membrane. All of the expressed the purified antibodies were tested for their abilities to block the binding between IL-6 and IL-6R by ELISA. The procedures was descripted as follows:
The plates were coated with100 μl of 2 ng/μl IL-6.Fc at 4° C. overnight, and blocked with 2% skim milk at 37° C. for 1 hour. The plates were then washed, incubated with 100 μl of serial diluted testing samples with and 1 ng/μl IL-6R.BP15. After 1 hourincubation at 37° C,. the plates were washed andHRP-streptavidin (Jackson, 016-030-084) diluted at 1:4000 was added to the plate followed by incubation. After wash and 100 μl TMB develoment at room temperature for 5 min. 100 μl of 1M H₂SO₄ was added to terminate the reaction. The OD₄₅₀ values were read.

IC50 [1] [mg/L] | Relative expression level of hepcidin mRNA (fold) in Hep3B cells with 5 nM antibody and 10 ng/ml IL-6 (blank 1; IL-6 only 2.783) [2] [fold] | IC50 [3] [mg/L] | Binder
0.49 | 1.87 | 0.466 | Tocilizumab (antibody, human IgG1, kappa, V domains shown, Positive control; also called anti-IL-6R humanized mAb tocilizumab) VH: EVQLQESGPGLVRPSQTLSLTCTVSGYSITSDHAWSWVRQPPGRGLEWIGYISYSGITTYNPSLKSRVTMLRDTSKNQFSLRLSSVTAADTAVYYCARSLARTTAMDYWGQGSLVTVSS VL: DIQMTQSPSSLSASVGDRVTITCRASQDISSYLNWYQQKPGKAPKLLIYYTSRLHSGVPSRFSGSGSGTDFTFTISSLQPEDIATYYCQQGNTLPYTFGQGTKVEIKR
0.0474 |  | 0.5 | Sari (antibody, human IgG1, kappa, V domains shown, Positive control antibody; also called Sarilumab; anti-IL-6R antibody sarilumab (Regeneron)) VH: EVQLVESGGGLVQPGRSLRLSCAASRFTFDDYAMHWVRQAPGKGLEWVSGISWNSGRIGYADSVKGRFTISRDNAENSLFLQMNGLRAEDTALYYCAKGRDSFDIWGQGTMVTVSS VL: DIQMTQSPSSVSASVGDRVTITCRASQGISSWLAWYQQKPGKAPKLLIYGASSLESGVPSRFSGSGSGTDFTLTISSLQPEDFASYYCQQANSFPYTFGQGTKLEIKR
